Data on 2 molecules can be found in paper PMC3437207, “G-quadruplex recognition activities of E. Coli MutS”.

Data set [1] addresses T1, MutS F36A (Escherichia coli, UniProt P23909 1-853, F36A).
T1 sequence: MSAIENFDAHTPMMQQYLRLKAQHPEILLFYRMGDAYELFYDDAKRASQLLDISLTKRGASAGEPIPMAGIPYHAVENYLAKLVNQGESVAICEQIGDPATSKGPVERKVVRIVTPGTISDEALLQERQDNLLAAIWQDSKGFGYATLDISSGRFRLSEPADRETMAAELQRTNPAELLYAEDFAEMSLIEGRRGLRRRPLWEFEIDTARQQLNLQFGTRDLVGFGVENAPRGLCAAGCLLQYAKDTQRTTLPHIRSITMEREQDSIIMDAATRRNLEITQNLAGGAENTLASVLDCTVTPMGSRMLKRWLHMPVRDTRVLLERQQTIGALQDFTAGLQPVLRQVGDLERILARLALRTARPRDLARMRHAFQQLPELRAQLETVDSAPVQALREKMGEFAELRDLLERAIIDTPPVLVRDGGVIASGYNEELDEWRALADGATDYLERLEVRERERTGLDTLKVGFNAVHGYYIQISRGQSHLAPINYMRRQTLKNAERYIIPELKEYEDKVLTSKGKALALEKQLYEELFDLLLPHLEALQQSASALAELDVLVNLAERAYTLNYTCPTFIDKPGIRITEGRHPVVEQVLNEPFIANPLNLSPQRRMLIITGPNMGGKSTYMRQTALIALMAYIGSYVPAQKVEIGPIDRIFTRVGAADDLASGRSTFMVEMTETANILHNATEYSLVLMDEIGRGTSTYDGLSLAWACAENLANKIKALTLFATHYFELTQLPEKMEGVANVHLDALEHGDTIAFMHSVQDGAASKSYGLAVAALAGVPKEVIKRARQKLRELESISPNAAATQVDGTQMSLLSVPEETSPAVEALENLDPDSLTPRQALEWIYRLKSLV
Put plainly: EMSA; 19-150 nM protein; no nucleotide; 5 mM Mg2+; 20 mM Tris pH 7.6, 5 mM MgCl2, 1 mM DTT, 50 ug/ml BSA, 10 mM KCl, 200 fmol homoduplex competitor, 10-20 fmol labeled DNA in 20 ul; 6% native PAGE 0.5X TBE with. As to conditions: protein: recombinant; tags: His; chain copies: 2; label: 5' 32P; blunt; single G-T mismatch at position 14 of strand 1. A general note: Mobility shift assays separate free from complexed probe on a gel.

For data set [2], the target named is T1, MutS F36A. Put plainly: EMSA; 38-150 nM protein; 20 mM Tris pH 7.6, 5 mM MgCl2, 1 mM DTT, 50 ug/ml BSA, 10 mM KCl, 200 fmol homoduplex competitor, 10-20 fmol labeled DNA in 20 ul; 6% native PAGE 0.5X TBE with. As to conditions: protein: recombinant; tags: His; chain copies: 2; label: 32P; blunt.

B1: G-T mismatch heteroduplex (dsDNA)
DNA 1: CTAGCAAGCTTTCGATTCTAGAAATTCGGC
DNA 2: GCCGAATTTCTAGAATTGAAAGCTTGCTAG
With B1, the binding result with MutS F36A [1] is “no binding”.

B2: Homoduplex (dsDNA)
DNA 1: CTAGCAAGCTTTCAATTCTAGAAATTCGGC
DNA 2: GCCGAATTTCTAGAATTGAAAGCTTGCTAG
Take B2: in the data set with MutS F36A [2], the binding result is on record as “no binding”.
